Assay results as given in patent publication US20210030857A1 (NGM BIOPHARMACEUTICALS, published 2021).
Values joined by “and” are separate entries in the source; they are usually repeats but may differ in a detail not shown here. Equal values may be shown once.

Experiments:
[1] = target: human beta klotho / human FGFR1c receptor complex on cells (human, UniProt Q86Z14 1-1044; P11362 22-822); assay: cell-based or functional assay
[2] = target: T1, human beta klotho protein (soluble, used in Biacore) (human, UniProt Q86Z14 53-997, limits assumed); assay: Biacore SPR (as in Example 2)
T1 construct: also called HuKLB; huKLB
T1 sequence: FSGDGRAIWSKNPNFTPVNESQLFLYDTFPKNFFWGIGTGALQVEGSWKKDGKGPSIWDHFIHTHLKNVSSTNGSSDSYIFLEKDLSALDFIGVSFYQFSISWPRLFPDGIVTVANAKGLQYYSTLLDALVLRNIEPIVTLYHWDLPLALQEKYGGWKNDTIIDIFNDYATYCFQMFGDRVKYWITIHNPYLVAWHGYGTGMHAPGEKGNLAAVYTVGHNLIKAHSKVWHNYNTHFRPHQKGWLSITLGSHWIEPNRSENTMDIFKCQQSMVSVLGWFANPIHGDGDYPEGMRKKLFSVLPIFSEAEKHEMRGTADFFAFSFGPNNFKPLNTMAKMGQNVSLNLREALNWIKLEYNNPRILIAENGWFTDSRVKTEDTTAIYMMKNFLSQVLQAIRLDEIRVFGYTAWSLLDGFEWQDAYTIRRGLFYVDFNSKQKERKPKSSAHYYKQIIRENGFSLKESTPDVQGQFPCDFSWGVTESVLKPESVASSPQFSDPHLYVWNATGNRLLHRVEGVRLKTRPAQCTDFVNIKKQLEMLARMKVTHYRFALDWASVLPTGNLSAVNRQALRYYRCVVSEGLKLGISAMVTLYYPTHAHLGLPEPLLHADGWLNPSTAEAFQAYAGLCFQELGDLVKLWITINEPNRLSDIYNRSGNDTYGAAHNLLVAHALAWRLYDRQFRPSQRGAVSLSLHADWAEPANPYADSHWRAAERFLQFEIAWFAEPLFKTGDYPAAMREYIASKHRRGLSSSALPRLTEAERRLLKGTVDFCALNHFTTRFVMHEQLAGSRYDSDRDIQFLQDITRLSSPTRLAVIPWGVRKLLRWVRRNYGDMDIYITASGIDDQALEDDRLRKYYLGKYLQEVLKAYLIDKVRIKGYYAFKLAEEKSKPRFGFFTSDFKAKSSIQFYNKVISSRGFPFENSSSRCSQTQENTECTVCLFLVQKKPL

[3] = target: T2, human beta klotho mutant Y701A on HEK-293T cells (human, UniProt Q86Z14 1-1044); assay: shotgun alanine mutagenesis, FACS on HEK-293T cells
T2 sequence: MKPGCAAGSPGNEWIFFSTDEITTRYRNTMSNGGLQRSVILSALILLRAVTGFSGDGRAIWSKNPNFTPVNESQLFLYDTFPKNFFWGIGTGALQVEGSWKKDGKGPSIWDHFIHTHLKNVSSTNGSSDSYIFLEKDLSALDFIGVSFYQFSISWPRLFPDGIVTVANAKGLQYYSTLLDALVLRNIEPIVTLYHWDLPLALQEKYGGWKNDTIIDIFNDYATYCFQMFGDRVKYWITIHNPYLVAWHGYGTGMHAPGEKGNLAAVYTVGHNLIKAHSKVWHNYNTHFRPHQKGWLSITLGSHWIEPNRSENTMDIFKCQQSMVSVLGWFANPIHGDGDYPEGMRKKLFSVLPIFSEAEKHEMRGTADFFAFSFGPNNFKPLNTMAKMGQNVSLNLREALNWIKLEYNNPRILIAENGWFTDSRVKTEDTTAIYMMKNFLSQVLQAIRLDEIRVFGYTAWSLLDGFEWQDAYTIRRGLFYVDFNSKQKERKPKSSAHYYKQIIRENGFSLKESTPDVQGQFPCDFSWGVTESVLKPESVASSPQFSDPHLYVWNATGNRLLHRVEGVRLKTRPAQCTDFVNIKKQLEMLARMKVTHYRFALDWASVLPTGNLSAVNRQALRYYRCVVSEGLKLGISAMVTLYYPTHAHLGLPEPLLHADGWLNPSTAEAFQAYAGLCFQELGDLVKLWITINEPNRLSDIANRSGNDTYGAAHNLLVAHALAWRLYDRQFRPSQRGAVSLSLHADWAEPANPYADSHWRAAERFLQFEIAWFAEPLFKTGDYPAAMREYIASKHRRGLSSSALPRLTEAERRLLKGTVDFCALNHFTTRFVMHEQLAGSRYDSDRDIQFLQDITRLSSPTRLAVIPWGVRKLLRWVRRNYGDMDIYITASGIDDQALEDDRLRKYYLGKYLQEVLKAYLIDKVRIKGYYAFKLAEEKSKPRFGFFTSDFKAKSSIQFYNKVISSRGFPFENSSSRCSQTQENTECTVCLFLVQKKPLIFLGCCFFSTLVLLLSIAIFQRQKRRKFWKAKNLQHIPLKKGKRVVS
Experimental: In order to further identify specific binding residues within human beta klotho KL2 domain, shotgun mutagenesis was used to separately mutate individual residues of the KL2 domain of human beta klotho to an alanine (e.g., residues F508A-L1008A). […] For example, screening of the beta klotho mutant proteins was conducted at a concentration of 0.5 μg/ml for the humanized 5H23 antibody, 1.0 μg/ml for the Fab fragment, and 2.0 μg/ml for a positive control polyclonal anti-beta klotho antibodies.

Sequence of human beta klotho / human FGFR1c receptor complex on cells (P11362 22-822 limits assumed, one chain of several): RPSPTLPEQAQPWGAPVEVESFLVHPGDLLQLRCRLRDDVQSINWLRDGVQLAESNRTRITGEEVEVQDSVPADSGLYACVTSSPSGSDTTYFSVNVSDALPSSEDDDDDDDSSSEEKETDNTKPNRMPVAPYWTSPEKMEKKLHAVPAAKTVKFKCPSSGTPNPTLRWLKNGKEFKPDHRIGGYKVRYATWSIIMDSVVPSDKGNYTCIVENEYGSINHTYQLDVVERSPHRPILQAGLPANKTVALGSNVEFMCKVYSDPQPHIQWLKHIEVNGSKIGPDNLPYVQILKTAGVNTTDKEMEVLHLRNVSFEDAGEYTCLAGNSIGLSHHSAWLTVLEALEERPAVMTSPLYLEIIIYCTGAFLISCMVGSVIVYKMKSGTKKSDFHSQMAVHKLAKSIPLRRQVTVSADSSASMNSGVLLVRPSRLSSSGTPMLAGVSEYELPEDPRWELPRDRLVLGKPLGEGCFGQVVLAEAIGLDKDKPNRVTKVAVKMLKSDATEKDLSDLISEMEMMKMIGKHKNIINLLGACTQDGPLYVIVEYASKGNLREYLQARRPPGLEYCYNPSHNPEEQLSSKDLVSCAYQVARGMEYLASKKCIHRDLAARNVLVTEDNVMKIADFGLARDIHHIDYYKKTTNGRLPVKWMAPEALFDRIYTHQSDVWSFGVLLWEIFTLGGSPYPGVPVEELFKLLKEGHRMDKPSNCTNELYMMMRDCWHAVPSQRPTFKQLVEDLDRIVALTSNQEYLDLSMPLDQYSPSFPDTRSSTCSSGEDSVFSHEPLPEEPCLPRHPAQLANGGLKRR

Binder | EC50-adipocyte [1] | EC50 reporter assay [1] | Kd [2] | binding result [3]
antibody 5H23 (antibody, V domains shown, Murine monoclonal antibody from hybridoma; also called 5H23-Alexa647 (labelled form)) VH: QVQLQQSGPELVKPGALVKISCKASGYTFTSYDINWVKQRPGQGLEWIGWIYPGDGSTKYNEKFKGKATLTADKSSRTAYMQLSSLTSENSAVYFCARSDYYGSRSFAYWGQGTLVTVSA VL: DIVLTQSPASLAVSLGQRATISCRASKSVSTSGYVYMHWNQQKPGQPPKLLIYLASYLESGVPARFSGSGSGTDFTLNIHPVEEEDAAIYYCQHSRDLTFPFGGGTKLEIK | 3.4 nM | 0.27 nM and 0.51 nM | – | –
humanized 5H23 antibody (VH SEQ ID NO: 271 and VL SEQ ID NO: 276) (antibody, V domains shown, also called h5H23; h5H23 (Prep 1)) VH: QVQLQQSGAEVKKPGASVKVSCKASGYTFTSYDINWVRQAPGQGLEWIGWIYPGDGSTKYNEKFKGKATITRDTSASTAYMELSSLRSEDTAVYFCARSDYYGSRSFAYWGQGTLVTVSS VL: DIVMTQSPDSLAVSLGERATINCRASKSVSTSGYVYMHWYQQKPGQPPKLLIYLASYLESGVPDRFSGSGSGTDFTLTISSVQAEDVAVYYCQHSRDLTFPFGGGTKLEIK | – | – | 0.64 nM and 0.58 nM | no binding (tested: 0.5 µg/ml)
